From paper PMC10065799, “High-throughput profiling of sequence recognition by tyrosine kinases and SH2 domains using bacterial peptide display” (eLife, 2023)
Each block holds one binder with its values, some of them ahead of it. Square brackets hold non-standard residues; d marks the D form. pY = N[C@@H](Cc1ccc(OP(=O)(O)O)cc1)C(=O)O

Target: human c-Src SH2 domain (residues 143-250) (human, UniProt P12931-1 143-250, biotin on the Avi tag (co-expression with the biotin ligase BirA))
Assay: fluorescence polarisation; competition: unlabeled phosphopeptide serially diluted against 30 nM fluorescent peptide and 240 nM (1.5 x KD) c-Src SH2; same buffer; 25 °C; cubic binding equation
Settings: both partners purified

binding result: binds
B1: CLIP2_Y972 phosphopeptide Ac-QSDQRR(pY)SLIDRG-NH2 (peptide)
peptide: Ac-QSDQRR[pY]SLIDRG-NH2
SMILES: CC[C@H](C)[C@H](NC(=O)[C@H](CC(C)C)NC(=O)[C@H](CO)NC(=O)[C@H](Cc1ccc(OP(=O)(O)O)cc1)NC(=O)[C@H](CCCNC(=N)N)NC(=O)[C@H](CCCNC(=N)N)NC(=O)[C@H](CCC(N)=O)NC(=O)[C@H](CC(=O)O)NC(=O)[C@H](CO)NC(=O)[C@H](CCC(N)=O)NC(C)=O)C(=O)N[C@@H](CC(=O)O)C(=O)N[C@@H](CCCNC(=N)N)C(=O)NCC(N)=O
notes: source: synthetic peptide (synthesized in-house, RP-HPLC purified)

binding result: binds
B2: CLIP2_Y972_R977P phosphopeptide Ac-QSDQRR(pY)SLIDPG-NH2 (peptide)
peptide: Ac-QSDQRR[pY]SLIDPG-NH2
SMILES: CC[C@H](C)[C@H](NC(=O)[C@H](CC(C)C)NC(=O)[C@H](CO)NC(=O)[C@H](Cc1ccc(OP(=O)(O)O)cc1)NC(=O)[C@H](CCCNC(=N)N)NC(=O)[C@H](CCCNC(=N)N)NC(=O)[C@H](CCC(N)=O)NC(=O)[C@H](CC(=O)O)NC(=O)[C@H](CO)NC(=O)[C@H](CCC(N)=O)NC(C)=O)C(=O)N[C@@H](CC(=O)O)C(=O)N1CCC[C@H]1C(=O)NCC(N)=O
notes: as for B1
